The chains are these.
T1: llama c-Met ECD (aa 25-932), His tag (Llama glama)
T1 construct: also called Llama glama c-Met
T1 chain: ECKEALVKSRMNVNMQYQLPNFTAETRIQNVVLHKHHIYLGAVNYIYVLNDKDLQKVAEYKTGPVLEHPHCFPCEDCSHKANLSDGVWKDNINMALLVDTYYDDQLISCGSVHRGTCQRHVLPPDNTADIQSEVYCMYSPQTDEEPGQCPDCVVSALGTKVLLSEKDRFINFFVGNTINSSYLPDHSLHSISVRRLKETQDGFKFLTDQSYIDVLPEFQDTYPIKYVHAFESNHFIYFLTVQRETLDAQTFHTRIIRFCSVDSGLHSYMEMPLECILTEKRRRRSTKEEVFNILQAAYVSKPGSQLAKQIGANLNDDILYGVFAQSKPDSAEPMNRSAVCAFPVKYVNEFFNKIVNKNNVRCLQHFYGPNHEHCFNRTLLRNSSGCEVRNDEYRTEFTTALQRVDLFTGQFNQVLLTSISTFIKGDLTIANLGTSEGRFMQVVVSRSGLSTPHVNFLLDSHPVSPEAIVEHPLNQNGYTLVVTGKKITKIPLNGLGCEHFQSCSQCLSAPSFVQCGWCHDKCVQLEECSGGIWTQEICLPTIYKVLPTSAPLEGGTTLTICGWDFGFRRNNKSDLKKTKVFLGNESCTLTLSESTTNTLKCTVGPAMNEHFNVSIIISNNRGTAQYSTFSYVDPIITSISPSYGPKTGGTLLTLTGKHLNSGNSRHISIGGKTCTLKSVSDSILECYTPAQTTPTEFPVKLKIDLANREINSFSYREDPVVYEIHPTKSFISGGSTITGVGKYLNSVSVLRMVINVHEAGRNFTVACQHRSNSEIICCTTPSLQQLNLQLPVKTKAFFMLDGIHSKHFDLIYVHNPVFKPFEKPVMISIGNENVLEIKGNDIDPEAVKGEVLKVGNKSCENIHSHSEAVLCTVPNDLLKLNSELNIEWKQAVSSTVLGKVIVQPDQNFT

T2: human/llama-IPT chimeric c-Met ECD (human; Llama glama, UniProt P08581 25-932)
T2 construct: ranges stand under form; also called human/llama IPT1-4; construct with the human SEMA-PSI
T2 chain: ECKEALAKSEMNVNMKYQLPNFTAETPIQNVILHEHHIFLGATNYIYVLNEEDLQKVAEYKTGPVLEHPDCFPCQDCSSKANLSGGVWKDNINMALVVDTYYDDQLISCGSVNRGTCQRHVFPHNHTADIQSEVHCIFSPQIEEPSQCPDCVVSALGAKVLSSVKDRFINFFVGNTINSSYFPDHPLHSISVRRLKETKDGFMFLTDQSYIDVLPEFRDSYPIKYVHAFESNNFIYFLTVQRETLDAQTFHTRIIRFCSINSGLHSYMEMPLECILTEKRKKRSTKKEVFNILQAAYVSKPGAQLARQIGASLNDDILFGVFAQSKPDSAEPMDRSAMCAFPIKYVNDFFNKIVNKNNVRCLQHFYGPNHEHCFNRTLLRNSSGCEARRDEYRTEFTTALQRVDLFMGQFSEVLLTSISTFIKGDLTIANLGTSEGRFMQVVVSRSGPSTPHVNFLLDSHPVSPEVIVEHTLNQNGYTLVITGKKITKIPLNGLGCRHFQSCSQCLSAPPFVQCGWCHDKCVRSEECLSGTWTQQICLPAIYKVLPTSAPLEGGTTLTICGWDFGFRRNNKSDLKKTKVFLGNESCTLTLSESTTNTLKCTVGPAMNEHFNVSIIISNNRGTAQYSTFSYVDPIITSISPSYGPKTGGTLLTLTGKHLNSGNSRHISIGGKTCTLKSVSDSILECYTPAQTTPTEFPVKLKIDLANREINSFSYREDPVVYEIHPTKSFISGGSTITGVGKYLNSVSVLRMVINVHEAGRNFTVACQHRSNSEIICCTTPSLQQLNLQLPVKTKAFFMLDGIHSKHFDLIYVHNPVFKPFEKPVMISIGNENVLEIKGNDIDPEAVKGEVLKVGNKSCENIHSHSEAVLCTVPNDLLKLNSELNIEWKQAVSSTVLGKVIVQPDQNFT

B1: 36C4 (antibody, V domains shown)
VH: QVQLVESGPGLVKPSQTLSLTCAVSGGSITTNYYYWSWIRQSPGKGLEWMGVIAYDGSTDYSPSLKSRTSISRDTSKNQFSLQLSSVTPEDTAVYYCARDVRVIATGWATANALDAWGQGTLVTVSS
VL: QSVLTQPPSVSGSPGKTVTISCAGTSSDVGYGNYVSWYQQLPGTAPKLLIFAVSYRASGIPDRFSGSKSGNTAFLTISGLQSEDEADYYCASYRSSNNAAVFGGGTHLTVL
notes: also called mAb 36C4; SIMPLE antibody 36C4
B2: LS1 (aa1-98) (receptor)
chain: ECKEALVKSRMNVNMQYQLPNFTAETRIQNVVLHKHHIYLGAVNYIYVLNDKDLQKVAEYKTGPVLEHPHCFPCEDCSHKANLSDGVWKDNINMALLVDTYYDDQLISCGSVNRGTCQRHVFPHNHTADIQSEVHCIFSPQIEEPSQCPDCVVSALGAKVLSSVKDRFINFFVGNTINSSYFPDHPLHSISVRRLKETKDGFMFLTDQSYIDVLPEFRDSYPIKYVHAFESNNFIYFLTVQRETLDAQTFHTRIIRFCSINSGLHSYMEMPLECILTEKRKKRSTKKEVFNILQAAYVSKPGAQLARQIGASLNDDILFGVFAQSKPDSAEPMDRSAMCAFPIKYVNDFFNKIVNKNNVRCLQHFYGPNHEHCFNRTLLRNSSGCEARRDEYRTEFTTALQRVDLFMGQFSEVLLTSISTFIKGDLTIANLGTSEGRFMQVVVSRSGPSTPHVNFLLDSHPVSPEVIVEHTLNQNGYTLVITGKKITKIPLNGLGCRHFQSCSQCLSAPPFVQCGWCHDKCVRSEECLSGTWTQQICLPAIYKVFPNSAPLEGGTRLTICGWDFGFRRNNKFDLKKTRVLLGNESCTLTLSESTMNTLKCTVGPAMNKHFNMSIIISNGHGTTQYSTFSYVDPVITSISPKYGPMAGGTLLTLTGNYLNSGNSRHISIGGKTCTLKSVSNSILECYTPAQTISTEFAVKLKIDLANRETSIFSYREDPIVYEIHPTKSFISGGSTITGVGKNLNSVSVPRMVINVHEAGRNFTVACQHRSNSEIICCTTPSLQQLNLQLPLKTKAFFMLDGILSKYFDLIYVHNPVFKPFEKPVMISMGNENVLEIKGNDIDPEAVKGEVLKVGNKSCENIHLHSEAVLCTVPNDLLKLNSELNIEWKQAISSTVLGKVIVQPDQNFT
notes: Ranges count on mature human c-Met

The target of assay [1] is human c-Met on cells (MKN-45, A549, HPAF, BxPC3, NCI-H441) (human, UniProt P08581 25-1390). Kind of assay: cell-based or functional assay.
For assay [2], the target named is Ll9 (aa572-909) (human; Llama glama). Kind of assay: ELISA, mAb immobilised, c-Met chimera titrated (EC50 of the chimera). For orientation: In an ELISA, binding on a coated surface is turned into a signal by an enzyme label.
For assay [3], the target named is Ll11 (aa634-909) (human; Llama glama). Described as above.
Assay [4] concerns the target LP6 (aa497-909) (human; Llama glama). The description is as above.
Assay [5] has as its target Ll8 (aa540-909) (human; Llama glama). Described as above.
For assay [6], the target named is Ll10 (aa608-909) (human; Llama glama). The assay is described as above.
The target of assay [7] is LP7* (aa523-909) (human; Llama glama). The description is as above.
For assay [8], the target named is T1, llama c-Met ECD (aa 25-932), His tag. Kind of assay: ELISA, 200 ng immobilised c-Met protein.
For the assay “LS1 (aa1-98)”, the target named is B2. Kind of assay: ELISA, mAb immobilised, c-Met chimera titrated (EC50 of the chimera). From the text:
An ELISA was run to investigate the binding of the mAbs to the different chimeras.

The target in assay [9] is T2, human/llama-IPT chimeric c-Met ECD. Kind of assay: ELISA, 200 ng immobilised c-Met protein, mAb titrated.
A further assay deals with T3, HGF (UniProt P14210 32-728, limits assumed).
T3 construct: also called hepatocyte growth factor
Kind of assay: SPR, HGF on CM-5 chip, 10 µg/ml c-Met chimera injected. How it is done: Surface Plasmon Resonance (SPR) was also used to investigate the binding of the mAbs to the different llama-human c-Met chimeras. 3000 RU of 36C4, 48A2 and HGF were coupled on a CM-5 chip in 10 mM NaAc (pH4.5). 60 μl of a 10 μg/ml solution of the different c-Met chimeras was run over the chip at a flow rate of 30 μl/min and the association for 2 min was evaluated. The chip was regenerated with 20 mM NaOH and 1 M NaCl.

Here are results for two molecules from patent US20180215833A1 (published 2018).

Bounds are passed on as bounds.

T3 sequence (P14210 32-728 limits assumed): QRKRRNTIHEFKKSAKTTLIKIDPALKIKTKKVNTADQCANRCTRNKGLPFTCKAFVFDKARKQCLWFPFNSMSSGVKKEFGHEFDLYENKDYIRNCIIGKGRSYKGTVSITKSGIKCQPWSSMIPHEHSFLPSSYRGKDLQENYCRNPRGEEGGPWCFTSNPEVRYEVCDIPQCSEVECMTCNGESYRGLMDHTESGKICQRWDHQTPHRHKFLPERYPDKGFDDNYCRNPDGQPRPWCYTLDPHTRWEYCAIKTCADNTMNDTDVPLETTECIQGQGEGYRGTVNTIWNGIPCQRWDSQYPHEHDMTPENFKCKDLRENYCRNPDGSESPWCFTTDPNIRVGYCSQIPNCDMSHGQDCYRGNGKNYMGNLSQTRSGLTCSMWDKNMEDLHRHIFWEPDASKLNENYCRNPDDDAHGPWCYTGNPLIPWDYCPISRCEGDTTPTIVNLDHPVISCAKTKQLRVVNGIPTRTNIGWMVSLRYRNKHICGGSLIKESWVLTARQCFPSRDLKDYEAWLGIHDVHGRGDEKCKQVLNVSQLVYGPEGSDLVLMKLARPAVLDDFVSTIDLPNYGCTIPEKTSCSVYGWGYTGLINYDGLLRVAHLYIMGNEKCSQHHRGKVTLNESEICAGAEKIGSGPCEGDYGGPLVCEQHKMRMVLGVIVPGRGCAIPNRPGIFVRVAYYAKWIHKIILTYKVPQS

On to B1, for which the “ADCC, specific lysis of MKN-45 cells, EC50” value in assay [1] was determined as 0.005 µg/mL. Further, in assay [1], the “antibody-induced proliferation of BxPC3 cells, percentage of the proliferation obtained with 75 ng/ml HGF” value is less than 20%. Further, the EC50 in assay [2] was found to be 0.047 µg/mL; in assay [3], 0.045 µg/mL; in assay [4], 0.05 µg/mL; in [5], 0.047 µg/mL; in [6], 0.047 µg/mL; in [7], 0.055 µg/mL. The EC50 in the assay with LS1 (aa1-98) turned out to be 0.068 µg/mL. Also, the results for the binding result in assay [8] and in assay [9] were “no binding” and “binds”, respectively.
On to B2, for which, in the assay with HGF, the binding result is “binds”.

What is called EC50 is the concentration that produces a half-maximal response. Low values mean greater potency, high ones weaker potency.
